According to patent US20190365892A1 (Biogen, published 2019):
One block for each molecule: values may come before it.

Columns and labels:
[1] = molecular target: VLA-4 on tumor cell lines (Mec1, JM1, U266, H929, HL60, KG1) (UniProt P13612); test: cell-based or functional assay
[2] = molecular target: VLA-4 on tumor cell lines (Mec1, JM1, U266, H929, HL60, KG1) (UniProt P13612); test: flow cytometry on H929 (MM) cells
[3] = molecular target: VLA-4 on tumor cell lines (Mec1, JM1, U266, H929, HL60, KG1) (UniProt P13612); test: flow cytometry on JM1 (CLL) cells
[4] = molecular target: VLA-4 on tumor cell lines (Mec1, JM1, U266, H929, HL60, KG1) (UniProt P13612); test: flow cytometry on KG1 (AML) cells
[5] = molecular target: VLA-4 on tumor cell lines (Mec1, JM1, U266, H929, HL60, KG1) (UniProt P13612); test: flow cytometry on U266 (MM) cells
[6] = molecular target: VLA-4 on tumor cell lines (Mec1, JM1, U266, H929, HL60, KG1) (UniProt P13612); test: flow cytometry on HL60 (AML) cells
[7] = molecular target: VLA-4 on tumor cell lines (Mec1, JM1, U266, H929, HL60, KG1) (UniProt P13612); test: flow cytometry on Mec1 (CLL) cells
α4β1 [8] = molecular target: T1, α4β1 (UniProt P13612 34-970; P05556 21-728); test: competition ELISA; α4β1 preincubated with test mAb, competitor murine HP1/2
T1 construct: The preparation is not described; also called VLA-4; alpha4beta1 integrin

α4β1 [9] = molecular target: T1, α4β1; test: competition ELISA; mixture of test mAb and mouse HP1/2 (competitor) on α4β1

B1: Chimeric HP1/2 (antibody, V domains shown)
VH: EVQLQQSGAELVKPGASVKLSCTASGFNIKDTYMHWVKQRPEQGLEWIGRIDPASGDTKYDPKFQVKATITADTSSNTAWLQLSSLTSEDTAVYYCADGMWVSTGYALDFWGQGTTVTVSS
VL: SIVMTQTPKFLLVSAGDRVTITCKASQSVTNDVAWYQQKPGQSPKLLIYYASNRYTGVPDRFTGSGYGTDFTFTISTVQAEDLAVYFCQQDYSSPYTFGGGTKLEIK
notes: also called chimerized HP1/2 antibody; chimeric mAb
IC50 (α4β1 [8]): 1.06 nM
IC50 (α4β1 [9]): 1.64 nM

B3: H1L3 (antibody, V domains shown)
VH: EVQLVQSGAEVKKPGATVKISCKASGFNIKDTYMHWVQQAPGKGLEWMGRIDPASGDTKYDPKFQVRVTITADTSTDTAYMELSSLRSEDTAVYYCADGMWVSTGYALDFWGQGTLVTVSS
VL: SIVMTQSPDSLAVSLGERATINCKASQSVTNDVAWYQQKPGQPPKLLIYYASNRYTGVPDRFSGSGYGTDFTFTISSLQAEDVATYFCQQDYSSPYTFGQGTKVEIK
IC50 (α4β1 [8]): 0.49 nM

B5: H1L2 (antibody, V domains shown)
VH: EVQLVQSGAEVKKPGATVKISCKASGFNIKDTYMHWVQQAPGKGLEWMGRIDPASGDTKYDPKFQVRVTITADTSTDTAYMELSSLRSEDTAVYYCADGMWVSTGYALDFWGQGTLVTVSS
VL: SIVMTQSPDSLAVSLGERATINCKASQSVTNDVAWYQQKPGQPPKLLIYYASNRYTGVPDRFSGSGYGTDFTLTISSLQAEDVAVYFCQQDYSSPYTFGQGTKVEIK
IC50 (α4β1 [8]): 0.9 nM
IC50 (α4β1 [9]): 1.34 nM

Now from value to molecule:

IC50 (nM), inhibition of adhesion of H929 (MM) cells to Fibronectin-coated wells [1]: 0.21 nM
IC50 (nM), inhibition of adhesion of H929 (MM) cells to VCAM1-Ig-coated wells [1]: 1.35 nM
IC50 (nM), inhibition of adhesion of HL60 (AML) cells to Fibronectin-coated wells [1]: 0.16 nM
IC50 (nM), inhibition of adhesion of HL60 (AML) cells to VCAM1-Ig-coated wells [1]: 0.91 nM
IC50 (nM), inhibition of adhesion of JM1 (CLL) cells to VCAM1-Ig-coated wells [1]: 0.12 nM
IC50 (nM), inhibition of adhesion of KG1 (AML) cells to Fibronectin-coated wells [1]: 0.05 nM
IC50 (nM), inhibition of adhesion of KG1 (AML) cells to VCAM1-Ig-coated wells [1]: 0.1 nM
IC50 (nM), inhibition of adhesion of Mec1 (CLL) cells to Fibronectin-coated wells [1]: 0.1 nM
IC50 (nM), inhibition of adhesion of Mec1 (CLL) cells to VCAM1-Ig-coated wells [1]: 0.07 nM
IC50 (nM), inhibition of adhesion of U266 (MM) cells to Fibronectin-coated wells [1]: 0.14 nM
IC50 (nM), inhibition of adhesion of U266 (MM) cells to VCAM1-Ig-coated wells [1]: 0.13 nM
antibody concentration giving maximal inhibition of HL60 cell binding to FN and VCAM1-Ig [1]: 20 µg/mL
antibody concentration giving maximal inhibition of Mec1 cell binding to FN and VCAM1-Ig [1]: 20 µg/mL
antibody concentration giving maximal inhibition of U266 cell binding to FN and VCAM1-Ig [1]: 20 µg/mL
EC50 [2]: 0.91 nM
EC50 [3]: 0.21 nM
EC50 [4]: 0.19 nM
EC50 [5]: 0.46 nM
EC50 [6]: 0.11 nM
EC50 [7]: 0.11 nM
IC50 (α4β1 [8]): 1.05 nM
IC50 (α4β1 [9]): 1.41 nM
Molecule: Humanized HP1/2 (HuHP1/2) (antibody)

IC50 (α4β1 [8]): 1.87 nM
IC50 (α4β1 [9]): 4.46 nM
B2: H1L0 (antibody, V domains shown)
VH: EVQLVQSGAEVKKPGATVKISCKASGFNIKDTYMHWVQQAPGKGLEWMGRIDPASGDTKYDPKFQVRVTITADTSTDTAYMELSSLRSEDTAVYYCADGMWVSTGYALDFWGQGTLVTVSS
VL: DIVMTQSPDSLAVSLGERATINCKASQSVTNDVAWYQQKPGQPPKLLIYYASNRYTGVPDRFSGSGSGTDFTLTISSLQAEDVAVYYCQQDYSSPYTFGQGTKVEIK

IC50 (α4β1 [8]): 1.67 nM
IC50 (α4β1 [9]): 4.55 nM
B4: H1L1 (antibody, V domains shown)
VH: EVQLVQSGAEVKKPGATVKISCKASGFNIKDTYMHWVQQAPGKGLEWMGRIDPASGDTKYDPKFQVRVTITADTSTDTAYMELSSLRSEDTAVYYCADGMWVSTGYALDFWGQGTLVTVSS
VL: SIVMTQSPDSLAVSLGERATINCKASQSVTNDVAWYQQKPGQPPKLLIYYASNRYTGVPDRFSGSGSGTDFTLTISSLQAEDVAVYFCQQDYSSPYTFGQGTKVEIK
